The assay concerns the target MEF2C-Flag (myocyte enhancer factor 2C with Flag tag) (UniProt Q8CFN5 1-474). In words: co-IP.

Chain of MEF2C-Flag (myocyte enhancer factor 2C with Flag tag) (Q8CFN5 whole entry): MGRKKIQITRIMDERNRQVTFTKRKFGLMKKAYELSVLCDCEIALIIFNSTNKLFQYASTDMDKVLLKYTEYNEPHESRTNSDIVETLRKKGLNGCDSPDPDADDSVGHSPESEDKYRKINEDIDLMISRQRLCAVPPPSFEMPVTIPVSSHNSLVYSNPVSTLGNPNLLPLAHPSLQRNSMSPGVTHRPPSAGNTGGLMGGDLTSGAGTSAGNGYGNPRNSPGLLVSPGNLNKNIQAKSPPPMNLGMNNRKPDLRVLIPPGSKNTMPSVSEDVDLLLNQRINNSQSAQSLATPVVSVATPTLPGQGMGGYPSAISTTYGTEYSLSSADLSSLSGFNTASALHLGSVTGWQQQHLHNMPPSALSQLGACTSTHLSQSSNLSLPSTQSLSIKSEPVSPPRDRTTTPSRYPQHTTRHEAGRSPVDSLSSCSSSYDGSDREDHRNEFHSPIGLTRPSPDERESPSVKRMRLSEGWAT

B1: Gli2 (glioma-associated factor 2) (natural protein, mouse, UniProt Q0VGV1 1-1540, looked up)
chain: METSAPAPALEKKEAKSGLLEDSSFPDPGKKACPLAVAAAVAAHGVPQQLLPAFHAPLPIDMRHQEGRYHYDPHSVHSVHGPPTLSGSPFISDISLIRLSPHPAGPGESPFSAHHPYVNPHMEHYLRSVHSSPTLSMISAARGLSPADVAHEHLKERGLFSLAAPGTNPSDYYHQMTLMASHPTPYGDLLMQSGGAASAPHLHDYLNPVDASRFSSPRVTPRLSRKRALSISPLSDASLDLQRMIRTSPNSLVAYINNSRSSSAASGSYGHLSAGALSPAFTFPHPINPVAYQQILSQQRGLGSAFGHTPPLIQPSPTFLAQQPMTLTSISTMPTQLSSSSSNCLNDANQNKQNSESAVSSTVNPITIHKRSKVKTEAEGLRPASPLGLTQEQLADLKEDLDRDDCKQEAEGVIYETNCHWADCTKEYDTQEQLVHHINNEHIHGEKKEFVCRWQACTREQKPFKAQYMLVVHMRRHTGEKPHKCTFEGCSKAYSRLENLKTHLRSHTGEKPYVCEHEGCNKAFSNASDRAKHQNRTHSNEKPYICKIPGCTKRYTDPSSLRKHVKTVHGPDAHVTKKQRNDVHVRAPLLKENGDNEASAEPGGRGPEESVEASSTSHTVEDCLHIKAIKTESSGLCQSSPGAQSSCSSEPSPLGSAPNNDSGMEMPGTGPGSLGDLTALADTCPGADTSALAAPSTGGLQLRKHMSTVHRFEQLKREKLKSLKDSCSWAGPAPHTRNTKLPPLPVNGSVLENFNNTGGGGPAGLLPSQRLPELTEVTMLSQLQERRDSSTSTMSSAYTVSRRSSGISPYFSSRRSSEASPLGGLRPHNASSADSYDPISTDASRRSSEASQCSGGGPGLLNLTPAQQYNLRAKYAAATGGPPPTPLPGLDRVSLRTRLALLDAPERALPGACPHPLGPRRGSDGPTYSHGHGHGYAGAAPAFPHEGPNSSTRRASDPVRRPDPLILPRVQRFHSTHNMNPGSLPPCADRRGLHVQSHPSVDSNLTRNAYSPRPPSINENVVMEAVAAGVDGPGLECDLGLVEDELVLPDDVVQYIKAHTGGTLDDGIRQGYPTEGTGFPENSKLPSPGLQGHRRLAAADSNMGPSAPGLGGCQLSYSPSSNLNKSNMPVQWNEVSSGTVDALPTQVKPPPFPHSNLAVVQQKPAFGQYPGYNPQSVQSSSGGLDSTQPHLQLRGAPSASRGSYTQQPRQPAAGSQCLGMSAAMSPQASYSQAHPQLSPNIVSGSLNQFSPSCSNMAAKPSHLGLPQQMEVVPNATIMNGHQREHGVPNSSLAAVSQPHPVLSYPQQDSYQQGSNLLSSHQPGFMESQQNAGFGLMQPRPPLEPNTASRHRGVRSGQQQLYARTTGQAMVTSANQETAEAMPKGPAGTMVSLAPQPSQDTGRAQDQNTLYYYGQIHMYEQNGGCPAVQPQPPQPQACSDSIQPEPLPSPGVNQVSSTVDSQLLEPPQIDFDAIMDDGDHSSLFSGALSPTLLHNLSQNSSRLTTPRNSLTLPSIPAGISNMAVGDMSSMLTSLAEESKFF
Turning to B1, the “fold amount co-immunoprecipitated against the Flag-vector control” value came to 4 fold.
